{"source": "patent US20180021429A1", "about": "“ANTICANCER AGENTS OR ANTIMETASTATIC AGENTS USING FSTL1 AND COMBINATION DRUG THEREOF” (PHARMA FOODS INTERNATIONAL CO., LTD., priority 2015, published 2018)", "key": {"[1]": {"tested_on": "various human tumor cells", "assay": "Proliferative capacity and invasive capacity of various human tumor cells (Example 26)", "type": "cell-based", "conditions": "antibody 5 μg/ml, particularly in a highly metastatic tumor cell line highly expressing Snail, FIG. 114A", "protocol": "Specifically, the influence of the anti-FSTL1 antibody on proliferative capacity and invasive capacity was studied using various human tumor cells, regardless of the presence or absence of the expression of Snail or FSTL1. Specifically, the anti-FSTL1 antibody (#6-55, 5 μg/ml) or a control antibody (aHema: mouse chimeric anti-hemagglutinin antibody, 5 μg/ml) was added to systems in which a pancreatic cancer cell line Panc1 (ATCC #CRL-1469), Panc1-snail+ which is a Panc1 cell line forced to express Snail, a pancreatic cancer cell line MIAPaCa (ATCC #CRL-1420), a bone metastatic breast cancer cell line MDA231 (ATCC #HTB-26), and a melanoma cell line Hs294T (ATCC IHTB-140) were each cultured at 1×10^5 cells. After culture for 3 days, the number of cells per culture system was counted to evaluate the proliferative capacity of the cells. The cells (5×10^4 cells) after the counting were further inoculated to Matrigel-coated transwell chamber (Corning Inc. #354480) and cultured for 4 hours. Then, the membranes were removed, and stained and fixed with Crystal Violet fixative. Then, the number of cells that permeated the membranes was counted under a microscope to evaluate the invasive capacity of the cells."}, "[2]": {"tested_on": "Treg induction caused by FSTL1", "assay": "Treg induction inhibitory activity using human peripheral blood cells (Example 25)", "type": "cell-based", "conditions": "human PBMCs; FSTL1 5 ng/ml; antibody 5 μg/mL; 3 days", "protocol": "Human peripheral blood cells (1×10^6 cells) were stimulated using FSTL1 (5 ng/ml), supplemented with the antibody (5 μg/mL), and cultured for 3 days. The percentage of a Foxp3^+CTLA4^+ cell fraction (Exp. 1) or a CD4^+Foxp3^+CTLA4^+ cell fraction (Exp. 2) in CD4^+ T cells was analyzed as Treg cells by flow cytometry. The flow cytometry conditions are as follows.\nBlood was collected from a healthy person by the addition of a 1/10 amount of 4% sodium citrate, then layered on Ficoll (specific gravity: 1.090), and centrifuged (1500 rpm, 20 min, room temperature), and a cell fraction present in an intermediate layer was used as “PBMCs”. The antibody (5 μg/mL) was added to a system in which these PBMCs (1×10^4 cells) were cultured for 3 days under stimulation with FSTL1 (5 ng/ml) in a 24-well plate. PBMCs recovered from the culture system were incubated at 4° C. for 1 hour using an anti-CD4 antibody (BD Pharmingen/Becton, Dickinson and Company), an anti-CD25 antibody (BD Pharmingen/Becton, Dickinson and Company), and an anti-FoxP3 antibody (eBioscience). Then, the percentage of a Foxp3+CTLA4+ cell fraction (Exp. 1) or a CD4+Foxp3+CTLA4+ cell fraction (Exp. 2) in CD4+ T cells contained therein was analyzed as Treg cells using a flow cytometer FACScan (Becton, Dickinson and Company)."}, "[3]": {"target": "T1, FSTL1 (Homo sapiens, UniProt Q12841)", "T1 sequence (Q12841 21-308)": "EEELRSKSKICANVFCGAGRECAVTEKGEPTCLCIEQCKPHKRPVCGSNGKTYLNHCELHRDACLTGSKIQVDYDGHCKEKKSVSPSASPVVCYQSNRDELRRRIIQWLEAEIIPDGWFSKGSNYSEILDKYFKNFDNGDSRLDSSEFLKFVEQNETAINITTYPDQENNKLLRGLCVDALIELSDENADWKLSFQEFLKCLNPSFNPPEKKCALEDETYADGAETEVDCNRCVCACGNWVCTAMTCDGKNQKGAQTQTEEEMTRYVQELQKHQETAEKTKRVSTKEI", "assay": "Ability of FSTL1-induced MSCs from mouse bone marrow cells to differentiate into adipocytes (Examples 14, 16)", "type": "cell-based", "parameters": "purchased R&D Systems, Inc. 1694-FN-050", "conditions": "Example 16; antibody doses as in Example 15", "protocol": "The antibody clone (#6-55, #7, […], #13, or #22) was evaluated for its activity by the same testing method as in Example 13. #6-55 was set as a positive control for activity. […] Mouse bone marrow cells were supplemented with FSTL1 and the predetermined concentration of each antibody and cultured for 8 days. 5×10^4 cells/well were separated from each culture system and evaluated for the ability to differentiate into adipocytes using an adipocyte differentiation reagent included in “Mesenchymal Stem Cell Functional Identification Kit (R&D Systems, Inc., Cat. No. SCO10)”. For the evaluation method, the cells were supplemented with the adipocyte differentiation reagent and cultured for 8 days. Then, adipocytes per culture system were counted under a microscope for evaluation. […]\nIn the same way as in Example 15, mouse bone marrow cells were supplemented with FSTL1 and the predetermined concentration of each antibody and cultured for 8 days. 5×10^4 cells/well were separated from each culture system and evaluated for the ability to differentiate into adipocytes using an adipocyte differentiation reagent included in “Mesenchymal Stem Cell Functional Identification Kit (R&D Systems, Inc., Cat. No. SC010)”. […] Then, adipocytes per culture system were counted under a microscope for evaluation (FIG. 40B). […]"}, "[4]": {"tested_on": "mouse breast cancer 4T1 cells", "assay": "Mouse breast cancer 4T1 cell-transplanted model (Example 21)", "type": "in vivo", "conditions": "BALB/c mice; intraperitoneal 10 mg/kg on days 4 and 7; FIG. 109", "protocol": "Procedures and methods of the experiment were basically performed according to Examples 17 to 20 under substantially the same conditions as in the bone metastasis model experiments of Examples 17 to 20. Drug efficacy evaluation was conducted using mouse tumor models other than Snail-positive tumor bone metastasis models. The drug efficacy of the anti-FSTL1 antibody was evaluated using cancer-bearing models of BALB/c mice different in strain from the C57BL/6 mice used in the preceding tests. Changes were made as follows. • Day 0: transplantation of tumor cells (5×10^5 cells subcutaneously & 5×10^5 cells intravenously) • Days 4 and 7: intraperitoneal administration of the antibody (10 mg/kg) • Day 14: drug efficacy evaluation (subcutaneous tumor growth)\nThe tumor volumes of the mice were measured 4, 7, 11, and 14 days after tumor implantation."}}, "note": "“Also recorded” adds a separate entry of the source.", "data": [{"molecule": "#6-55: chicken-mouse chimeric anti-FSTL1 antibody clone; variable regions SEQ ID NO: 783 (light), 785 (heavy) (antibody, V domains shown, mouse constant regions) VH: AVTLDESGGGLQTPGGALSLVCKGSGFTFTSVTMQWVRQAPGKGLEWVASVCSGSSTYYAPAVKGRATISRDNGQSTVRLQLSNLRPEDTGTYYCAKIAGRARWSCTSAAYNIDAWGHGTEVIVSS VL: ASTQPSSVSAIPGETVKITCSGGGNNYGWYQQRSPGSAPVTVIYYNDNRPSNIPSRFSGSTSGSTSTLTITGVQADDEAIYYCGSWDSNTDSGIFGAGTTLTVL", "values": [{"measurement": "proliferative capacity of tumor cells", "setting": "[1]; 3 days", "value": "strongly suppressed"}, {"measurement": "invasive capacity of tumor cells", "setting": "[1]; Matrigel-coated transwell, 4 hours", "value": "strongly suppressed"}, {"measurement": "Treg induction by FSTL1 (Foxp3+CTLA4+ / CD4+Foxp3+CTLA4+ cell fraction)", "setting": "[2]", "value": "significantly suppressed"}, {"measurement": "cells differentiating into adipocytes / induction of MSCs having the ability to differentiate into adipocytes", "setting": "[3]", "value": "decreased in number by the addition of #6-55 in a dose-dependent manner; also recorded: inhibited by 46-55 in an antibody dose-dependent manner; also recorded: inhibited by #6-55 in an antibody dose-dependent manner"}, {"measurement": "growth of 4T1 subcutaneous tumor", "setting": "[4]", "value": "significantly suppressed"}]}]}
